Assay results published in patent US20210292393A1.
Several values for one entry are separate records, joined by “and”; a condition that tells them apart may be missing. Identical values can stand only once.

How the values were obtained:
Conditions in all cases: remark: other sources report otherwise
[1] = target: SARS-CoV-2 full length spike protein (wild type), expressed on the surface of transiently transfected CHO cells (SARS-CoV-2), P0DTC2
[2] = target: SARS-CoV-2 spike protein (SARS-CoV-2), P0DTC2
[3] = target: SARS-CoV-2 full length spike protein (wild-type) (SARS-CoV-2), P0DTC2
[4] = target: SARS-CoV-2 spike (S) protein, full length, wild type (SARS-CoV-2), P0DTC2

Binder | median fluorescence intensity, fold over isotype control (fold over isotype) [1] | median fluorescence fold over isotype (fold over isotype) [4] | also measured
antibody 472 (antibody, V domains shown) VH: EVQLVESGGGLIQPGGSLRLSCAASGFTVSSNYMSWVRQAPGKGLEWVSVIYSGGTTHYADSVKGRFTISRDNSKNTLYLQMNSLRAEDTAVYYCANYGMDVWGQGTTVTVSS VL: SYELTQPSSVSVSPGQTARITCSGDVLAKKYARWFQQKPGQAPVLVIYKDSERPSGIPERFSGSSSGTTVTLTISGAQVEDEADYYCYSAADKVFGGGTKLTVL | 0.91 |  | Kd [2]: < 0.469 nM; koff [2]: < 1e-05 s⁻¹; kon [2]: 21300 M⁻¹ s⁻¹
antibody 452 (antibody, V domains shown) VH: QVQLVESGGGLVKPGGSLRLSCAASGFTFSDYYLSWIRQAPGKGLEWVSYISSSGSNIYYADSVKGRFTISRDNAKNSLYLQMNSLRADDTAVFYCARAGRYCSGGSCRVEYFQHWGQGTLVTVSS VL: SYELTQPPSVSVSPGQTARITCSGDALPKQYAYWYQQKPGQAPVLVIYKDNERPSGIPERFSGSSSGTTATLTISGVQAEDEADYYCQSADSSGTVVFGGGTKLTVL | 26.8 |  | Binding to Wild-Type SARS-CoV-2 (Bead Assay) [3]: 854
anti-SARS-CoV-2 antibody 499 (antibody, V domains shown) VH: EVQLVESGGGLVKPGGSLRLSCAASGFTFSSYSMNWVRQAPGKGLEWVSSISSSSSYIYYADSVKGRFTISRDNAKNSLYLQMNSLRAEDTAVYYCARAPAGIVVGPDYWGQGTLVTVSS VL: NFMLTQPHSVSESPGKTVTISCTGSSGSIASNYVQWYQQRPGSAPTTVIFEDNQRPSGVPDRFSGSIDSSSNSASLTISGLKTEDEADYYCQSYHSSNPHVVFGGGTKLTVL |  | 1120 and 386 and 432 | 
anti-SARS-CoV-2 antibody 495 (antibody, V domains shown) VH: QITLKESGPTLVKPTQTLTLTCTFSGFSLSTSGVGVGWIRQPPGKALEWLALIYWDDDKRYSPSLKSRLTITKDTSKNQVVLIMTNMDPVDTATYYCAHRDSSSWFDLDAFDIWGQGTMVIVSS VL: QSVLTQPPSVSEAPRQRVTISCSGSSSNIGNNAVNWYQQLPGKAPKLLIYYDDLLPSGVSDRFSGSKSGTSASLAISGLQSEDEADYYCAAWDDRLNGPVFGGGTKLTVL |  | 1090 and 384 and 530 | 
